From paper PMC5308204 (Nature genetics, 2010)
Changes are numbered by the printed parent chain.

How the values were obtained:
Assay in all cases: co-IP
HA-tagged VPS33B = molecular target: T1, HA-tagged VPS33B (human, UniProt Q9H267 1-617)
T1 sequence (looked up): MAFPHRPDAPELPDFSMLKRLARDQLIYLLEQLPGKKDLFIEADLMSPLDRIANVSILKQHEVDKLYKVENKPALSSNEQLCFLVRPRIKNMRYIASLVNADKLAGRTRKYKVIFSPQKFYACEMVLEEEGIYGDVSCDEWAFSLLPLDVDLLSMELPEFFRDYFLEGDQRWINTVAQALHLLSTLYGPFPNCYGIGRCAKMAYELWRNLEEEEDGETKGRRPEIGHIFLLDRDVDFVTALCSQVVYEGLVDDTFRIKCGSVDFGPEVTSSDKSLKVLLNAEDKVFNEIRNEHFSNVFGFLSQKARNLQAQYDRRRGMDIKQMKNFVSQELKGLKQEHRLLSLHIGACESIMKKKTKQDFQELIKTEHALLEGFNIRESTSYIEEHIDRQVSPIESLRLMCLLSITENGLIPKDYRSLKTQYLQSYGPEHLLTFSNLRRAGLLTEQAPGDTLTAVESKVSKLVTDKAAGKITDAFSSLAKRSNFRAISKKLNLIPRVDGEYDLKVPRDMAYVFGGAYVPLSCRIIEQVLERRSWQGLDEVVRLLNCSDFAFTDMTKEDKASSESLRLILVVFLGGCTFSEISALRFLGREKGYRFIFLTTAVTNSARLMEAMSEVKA

[1] = molecular target: T2, HA-tagged VPS33B (L30P) mutant (human, UniProt Q9H267 1-617, L30P)
T2 sequence (looked up): T1 sequence (looked up) with L30P

HA-tagged VPS33A = molecular target: T3, HA-tagged VPS33A (UniProt Q96AX1 1-596)
T3 sequence (looked up): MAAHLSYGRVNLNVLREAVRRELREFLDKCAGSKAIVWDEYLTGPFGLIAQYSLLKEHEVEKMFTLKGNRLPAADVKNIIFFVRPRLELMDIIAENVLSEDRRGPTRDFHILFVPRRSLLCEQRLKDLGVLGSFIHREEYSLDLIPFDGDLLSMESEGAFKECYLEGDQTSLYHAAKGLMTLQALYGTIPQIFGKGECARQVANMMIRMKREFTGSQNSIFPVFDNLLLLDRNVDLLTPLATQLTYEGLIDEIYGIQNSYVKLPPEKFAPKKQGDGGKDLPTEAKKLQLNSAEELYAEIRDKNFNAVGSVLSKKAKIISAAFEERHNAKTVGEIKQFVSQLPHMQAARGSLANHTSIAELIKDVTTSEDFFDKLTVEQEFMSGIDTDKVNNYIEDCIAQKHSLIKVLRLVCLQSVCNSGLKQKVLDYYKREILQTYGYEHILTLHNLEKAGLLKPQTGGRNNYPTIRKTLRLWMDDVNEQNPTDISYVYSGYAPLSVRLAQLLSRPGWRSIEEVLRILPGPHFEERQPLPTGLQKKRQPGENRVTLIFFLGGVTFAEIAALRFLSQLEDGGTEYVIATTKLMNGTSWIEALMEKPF

B1: Myc-tagged VIPAR (natural protein, human, UniProt Q9H9C1 1-493, looked up)
chain: MNRTKGDEEEYWNSSKFKAFTFDDEDDELSQLKESKRAVNSLRDFVDDDDDDDLERVSWSGEPVGSISWSIRETAGNSGSTHEGREQLKSRNSFSSYAQLPKPTSTYSLSSFFRGRTRPGSFQSLSDALSDTPAKSYAPELGRPKGEYRDYSNDWSPSDTVRRLRKGKVCSLERFRSLQDKLQLLEEAVSMHDGNVITAVLIFLKRTLSKEILFRELEVRQVALRHLIHFLKEIGDQKLLLDLFRFLDRTEELALSHYREHLNIQDPDKRKEFLKTCVGLPFSAEDSAHIQDHYTLLERQIIIEANDRHLESAGQTEIFRKHPRKASILNMPLVTTLFYSCFYHYTEAEGTFSSPVNLKKTFKIPDKQYVLTALAARAKLRAWNDVDALFTTKNWLGYTKKRAPIGFHRVVEILHKNNAPVQILQEYVNLVEDVDTKLNLATKFKCHDVVIDTYRDLKDRQQLLAYRSKVDKGSAEEEKIDALLSSSQIRWKN
- percent of the Myc-tagged input recovered (HA-tagged VPS33B): 28.6%
- percent of the Myc-tagged input recovered [1]: 23.8%

B2: Myc-tagged VPS16 (natural protein, human, UniProt Q9H269 1-839, looked up)
chain: MDCYTANWNPLGDSAFYRKYELYSMDWDLKEELRDCLVAAAPYGGPIALLRNPWRKEKAASVRPVLDIYSASGMPLASLLWKSGPVVSLGWSAEEELLCVQEDGAVLVYGLHGDFRRHFSMGNEVLQNRVLDARIFHTEFGSGVAILTGAHRFTLSANVGDLKLRRMPEVPGLQSAPSCWTVLCQDRVAHILLAVGPDLYLLDHAACSAVTPPGLAPGVSSFLQMAVSFTYRHLALFTDTGYIWMGTASLKEKLCEFNCNIRAPPKQMVWCSRPRSKERAVVVAWERRLMVVGDAPESIQFVLDEDSYLVPELDGVRIFSRSTHEFLHEVPAASEEIFKIASMAPGALLLEAQKEYEKESQKADEYLREIQELGQLTQAVQQCIEAAGHEHQPDMQKSLLRAASFGKCFLDRFPPDSFVHMCQDLRVLNAVRDYHIGIPLTYSQYKQLTIQVLLDRLVLRRLYPLAIQICEYLRLPEVQGVSRILAHWACYKVQQKDVSDEDVARAINQKLGDTPGVSYSDIAARAYGCGRTELAIKLLEYEPRSGEQVPLLLKMKRSKLALSKAIESGDTDLVFTVLLHLKNELNRGDFFMTLRNQPMALSLYRQFCKHQELETLKDLYNQDDNHQELGSFHIRASYAAEERIEGRVAALQTAADAFYKAKNEFAAKATEDQMRLLRLQRRLEDELGGQFLDLSLHDTVTTLILGGHNKRAEQLARDFRIPDKRLWWLKLTALADLEDWEELEKFSKSKKSPIGYLPFVEICMKQHNKYEAKKYASRVGPEQKVKALLLVGDVAQAADVAIEHRNEAELSLVLSHCTGATDGATADKIQRARAQAQKK
- percent of the Myc-tagged input recovered (HA-tagged VPS33A): 28.2%
